Residue numbers refer to the chain shown, from its start.
B1: IM-1063 variant (other)
heavy: GGSGGSEVQLVESGGGLVQPGGSLRLSCAASGFTFNTYAMNWVRQAPGKGLEWVARIRSKYNNYATYYADSVKDRFTISRDDSKNTLYLQMNSLRAEDTAVYYCVRHGNFGNSYVSWFAYWGQGTMVTVSSASTKGPSVFPLAPSSKSTSGGTAALGCLVKDYFPEPVTVSWNSGALTSGVHTFPAVLQSSGLYSLSSVVTVPSSSLGTQTYICNVNHKPSNTKVDKRVEPKSCPPCGGGGSQVQLVQSGAEVKKPGASVKVSCKASGYTFTSYWMNWVRQAPGQGLEWMGRIDPYDSETHYAQKLQGRVTMTTDTSTSTAYMELRSLRSDDTAVYYCARGGYDFDVGTLYWFFDVWGQGTTVTVSSGGGGSGGGGSGGGGSGGGGSDIQMTQSPSSLSASVGDRVTITCRASENIYSYLAWYQQKPGKAPKLLIYNAKTLAEGVPSRFSGSGSGTDFTLTISSLQPEDFATYYCQHHYGTPRTFGGGTKVEIK
light: GGSGGSQAVVTQEPSLTVSPGGTVTLTCRSSTGAVTTSNYANWVQQKPGQAPRGLIGGTNKRAPGTPARFSGSLLGGKAALTLSGVQPEDEAEYYCALWYSNLWVFGGGTKLTVLGQPKAAPSVTLFPPSSEELQANKATLVCLISDFYPGAVTVAWKADSSPVKAGVETTTPSKQSNNKYAASSYLSLTPEQWKSHRSYSCQVTHEGSTVEKTVAPTECPPCSGGGSDIQMTQSPSSLSASVGDRVTITCRASQGISNYLAWFQQKPGKAPKSLIYRANRLQSGVPSRFSGSGSGTDFTLTISSLQPEDVATYYCLQYDDFPWTFGQGTKLEIKGGGGSGGGGSGGGGSGGGGSQVQLVQSGAEVKKPGASVKVSCKASGYTFTSFWMHWVRQAPGQGLEWMGRIDPNRGGTEYNEKAKSRVTMTADKSTSTAYMELSSLRSEDTAVYYCAGGNPYYPMDYWGQGTTVTVSS
notes: CD3/5T4/NKG2A Tribody variant
B2: IM-1153 Tribody, CD3 mutant variant (other)
heavy: GGSGGSEVQLVESGGGLVQPGGSLRLSCAASGFTFNTYAMNWVRQAPGKGLEWVARIGSGGNGYATYYADSVKDRFTISRDDSKNTLYLQMNSLRAEDTAVYYCVRHGNFGASARSWFAYWGQGTMVTVSSASTKGPSVFPLAPSSKSTSGGTAALGCLVKDYFPEPVTVSWNSGALTSGVHTFPAVLQSSGLYSLSSVVTVPSSSLGTQTYICNVNHKPSNTKVDKRVEPKSCPPCGGGGSDIQMTQSPSSLSASVGDRVTITCRASENIYSYLAWYQQKPGKAPKLLIYNAKTLAEGVPSRFSGSGSGTDFTLTISSLQPEDFATYYCQHHYGTPRTFGGGTKVEIKGGGGSGGGGSGGGGSGGGGSQVQLVQSGAEVKKPGASVKVSCKASGYTFTSYWMNWVRQAPGQGLEWMGRIDPYDSETHYAQKLQGRVTMTTDTSTSTAYMELRSLRSDDTAVYYCARGGYDFDVGTLYWFFDVWGQGTTVTVSS
light: B1 light with T37R, S38G, Y40A, K61A, W99G, N102G
B3: IM-1155 Tribody, additional CD3 epsilon mutant variant (other)
heavy: GGSGGSEVQLVESGGGLVQPGGSLRLSCAASGFTFNGGSGGWVRQAPGKGLEWVAGGGSGGGGSGGGSGGSGGGRFTISRDDSKNTLYLQMNSLRAEDTAVYYCVRGGGSGGSGGSGGGGWGQGTMVTVSSASTKGPSVFPLAPSSKSTSGGTAALGCLVKDYFPEPVTVSWNSGALTSGVHTFPAVLQSSGLYSLSSVVTVPSSSLGTQTYICNVNHKPSNTKVDKRVEPKSCPPCGGGGSDIQMTQSPSSLSASVGDRVTITCRASENIYSYLAWYQQKPGKAPKLLIYNAKTLAEGVPSRFSGSGSGTDFTLTISSLQPEDFATYYCQHHYGTPRTFGGGTKVEIKGGGGSGGGGSGGGGSGGGGSQVQLVQSGAEVKKPGASVKVSCKASGYTFTSYWMNWVRQAPGQGLEWMGRIDPYDSETHYAQKLQGRVTMTTDTSTSTAYMELRSLRSDDTAVYYCARGGYDFDVGTLYWFFDVWGQGTTVTVSS
light: GGSGGSQAVVTQEPSLTVSPGGTVTLTCGSSGGGSGGGGSGGWVQQKPGQAPRGLIGGGSGGGSGTPARFSGSLLGGKAALTLSGVQPEDEAEYYCGGGGSGGGGFGGGTKLTVLGQPKAAPSVTLFPPSSEELQANKATLVCLISDFYPGAVTVAWKADSSPVKAGVETTTPSKQSNNKYAASSYLSLTPEQWKSHRSYSCQVTHEGSTVEKTVAPTECPPCSGGGSDIQMTQSPSSLSASVGDRVTITCRASQGISNYLAWFQQKPGKAPKSLIYRANRLQSGVPSRFSGSGSGTDFTLTISSLQPEDVATYYCLQYDDFPWTFGQGTKLEIKGGGGSGGGGSGGGGSGGGGSQVQLVQSGAEVKKPGASVKVSCKASGYTFTSFWMHWVRQAPGQGLEWMGRIDPNRGGTEYNEKAKSRVTMTADKSTSTAYMELSSLRSEDTAVYYCAGGNPYYPMDYWGQGTTVTVSS

Key:
[1] = target: T1, 5T4 on cells (NCI-H226 endogenous; CHO over-expressing 5T4) (UniProt Q13641 32-420, limits assumed); assay: FACS on NCI-H226 cells, endogenous 5T4 (FIG. 45B)
T1 construct: whole, on cells
T1 sequence (looked up): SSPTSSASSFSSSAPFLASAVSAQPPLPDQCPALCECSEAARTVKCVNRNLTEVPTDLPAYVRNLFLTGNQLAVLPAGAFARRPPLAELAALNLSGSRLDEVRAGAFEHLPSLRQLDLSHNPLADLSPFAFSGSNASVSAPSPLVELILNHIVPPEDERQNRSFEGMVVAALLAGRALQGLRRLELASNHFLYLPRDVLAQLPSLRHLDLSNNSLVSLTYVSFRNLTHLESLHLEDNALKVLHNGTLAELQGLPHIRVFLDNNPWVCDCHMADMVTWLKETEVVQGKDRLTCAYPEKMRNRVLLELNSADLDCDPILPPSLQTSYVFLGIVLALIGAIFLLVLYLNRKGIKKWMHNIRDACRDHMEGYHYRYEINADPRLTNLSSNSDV
Protocol: (§1) Suspension cultured cells was harvested directly, and adherent cell were digested using TrypLE Express Enzyme (cat: 12604-013, supplier Life technologies). Centrifuge at 1000 rpm for 5 min and discard the supernatant. Cells are suspended at a concentration of 2×10⁶/mL in FACS buffer (2% FBS in PBS) and add 100 µL/well of cell suspension to the plate (cat #3799, supplier Corning). Centrifuging the plates at 2000 rpm for 5 min and discard the supernatant. Re-suspend the cells in 100 µL/well of Tribody set antibodies (400 nM start, 4-fold dilution, 8 point including 0 point) and incubate the plate for 60 min at 4° C. Centrifuge the plate at 2000 rpm, 4° C. for 5 min and discard supernatant. Then wash the cells 3 times with 170 µL FACS buffer. Re-suspend the cells at 100 µL/well with secondary antibody (goat anti-human Ig Fab-FITC, Cat # 2085-02, Southern biotech) with 1:400 dilution and incubate the plate for 30 min at 4° C. in dark. Centrifuge the plate at 2000 rpm, 4° C. for 5 min and discard supernatant. […] The fluorescence intensity of the staining was measured using flow cytometer (BD, FACSVerse). The geometric mean fluorescence intensity (GMFI; median fluorescence intensity (MFI)) of set antibodies staining was calculated (BD FACSuite software). Dose-response curves were generated and EC50s for thetrispecific variants binding were calculated using GraphPad Prism software.

[2] = target: T2, h5T4-His (recombinant human 5T4) (human, UniProt Q13641 32-355, limits assumed); assay: ELISA on coated h5T4-His (FIG. 43B)
T2 construct: Bought protein; also called recombinant 5T4
T2 sequence (looked up): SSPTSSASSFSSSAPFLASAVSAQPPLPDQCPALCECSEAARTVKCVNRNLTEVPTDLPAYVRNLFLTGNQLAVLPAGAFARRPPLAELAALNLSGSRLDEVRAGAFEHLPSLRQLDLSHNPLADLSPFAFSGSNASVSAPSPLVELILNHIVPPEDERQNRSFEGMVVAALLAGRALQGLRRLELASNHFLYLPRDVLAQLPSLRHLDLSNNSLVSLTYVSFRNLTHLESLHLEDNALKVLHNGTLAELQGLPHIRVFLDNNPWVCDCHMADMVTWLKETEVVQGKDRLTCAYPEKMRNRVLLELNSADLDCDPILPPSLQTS
Protocol: (§2) Methods: ELISA binding of Tribody/ProTribody antibody constructs to antigens: Dilute target protein (hCD3epsilon-His (cat # 10977-H08S, supplier Sino Biological); h5T4-His (cat# 19845-H08H, supplier Sino Biological); NKG2A-CD94-ECD-hFc, Lot:20200724002, provided by CP; or NKG2D-ECD-hFc, Lot: 20200413002, provided by CP) into PBS with final concentration of 0.01 µg/mL for hCD3epsilon-His, 0.3 µg/mL for h5T4-His, 1 µg/mL for NKG2A-CD94-ECD-hFc and 0.7 µg/mL for hNKG2D-ECD-hFc respectively and coat 100 µL/well on ELISA plate (cat: 9018, supplier Corning) respectively. Incubate O/N, 4° C. The plates were blocked with 250 µL 1% BSA in PBST for 1 hr at 37° C.Wash 4 times with PBST. All the washes are done using Biotek (Elx 405). All the Tribody set antibodies were diluted to 400 nM and make 4-fold serially dilutions (12 points, including 0 point). Add 100 µL/well diluted antibody constructs solution to plate, incubate for 1 hr at 37° C.Wash 4 times with PBST. Add 100 µL/well anti-human kappa light chain-HRP (1:10000), incubate for 0.5 hr at 37° C. Wash 4 times with PBST. 100 µL/well of TMB substrate was added and incubated at room temperature for 5 min. 100 µL/well of 1N HCl to terminate reaction. Plates were read using ELISA plate reader at 450 nm wavelength (instrunet SpectraMax M5e). Data Analysis was performed using Graphpad prism 5 software by using nonlinear regression (curve fit): log (agonist) vs. response, agonist is antibody concentration (nM) and response is OD value.

NKG2A-CD94-ECD-hFc = target: T3, NKG2A-CD94-ECD-hFc (human, UniProt P26715 94-233; Q13241 32-179, limits assumed); assay: ELISA on coated NKG2A-CD94-ECD-hFc (FIG. 43C)
T3 construct: extracellular domain; Lot 20200724002, 'provided by CP'; the two-chain layout here is only the reading of the name; also called human NKG2A (recombinant); NKG2A antigen; not shown: human Fc (hFc)
Protocol: as §2

[3] = target: T4, NKG2A on NK92 cells (endogenous) (UniProt P26715 1-233, limits assumed); assay: FACS on NK92 cells, endogenous NKG2A (FIG. 45C)
T4 construct: whole, on cells
Protocol: as §1

[4] = target: T1, 5T4 on cells (NCI-H226 endogenous; CHO …); assay: FACS on CHO cells over-expressing ectopic 5T4 (FIG. 45D)
Protocol: Then wash the cells 3 times with 170 µL FACS buffer. Re-suspend the cells at 100 µL/well with secondary antibody (goat anti-human Ig Fab-FITC, Cat # 2085-02, Southern biotech) with 1:400 dilution and incubate the plate for 30 min at 4° C. in dark. Centrifuge the plate at 2000 rpm, 4° C. for 5 min and discard supernatant. Then wash the cells 3 times with FACS buffer and analyze the sample with FACS verse. The fluorescence intensity of the staining was measured using flow cytometer (BD, FACSVerse). The geometric mean fluorescence intensity (GMFI; median fluorescence intensity (MFI)) of set antibodies staining was calculated (BD FACSuite software). Dose-response curves were generated and EC50s for thetrispecific variants binding were calculated using GraphPad Prism software.
Results: The expressed trispecific constructs were analyzed for their binding to cells expressing endogenous CD3ε, 5T4 and NKG2A/NKG2D. […] (FIG. 45F).

[5] = target: T5, NKG2A/CD94 on CHO cells (CHOK1-NKG2A-CD94) (human, UniProt P26715 1-233; Q13241 1-179, limits assumed); assay: FACS on CHO cells over-expressing ectopic NKG2A (NKG2A/CD94 by the legend) (FIG. 45E)
T5 construct: whole, on cells; also called CHO cells over-expressing NKG2A/CD94; CHO cell line over expressing ectopic NKG2A
Protocol: as §1

[6] = target: T5, NKG2A/CD94 on CHO cells …; assay: competitive FACS receptor-ligand blocking assay on CHOK1-NKG2A-CD94 cells, labelled ligand HLA-E PE (FIG. 49)

T5 sequence (P26715 whole entry, chain 1 of 2): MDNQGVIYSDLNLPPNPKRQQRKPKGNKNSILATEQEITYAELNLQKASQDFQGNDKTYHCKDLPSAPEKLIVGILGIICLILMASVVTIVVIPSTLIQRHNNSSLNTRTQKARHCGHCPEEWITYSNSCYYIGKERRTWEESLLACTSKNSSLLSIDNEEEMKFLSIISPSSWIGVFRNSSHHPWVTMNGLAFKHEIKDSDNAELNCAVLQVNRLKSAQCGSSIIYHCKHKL
T5 sequence (Q13241 whole entry, chain 2 of 2): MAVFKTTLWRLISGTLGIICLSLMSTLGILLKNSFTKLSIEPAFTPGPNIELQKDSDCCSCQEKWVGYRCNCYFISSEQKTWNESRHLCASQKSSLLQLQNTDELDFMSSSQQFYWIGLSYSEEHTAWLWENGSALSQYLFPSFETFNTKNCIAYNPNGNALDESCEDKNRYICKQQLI
T4 sequence (P26715 whole entry): as the sequence (P26715 whole entry, chain 1 of 2) above
T3 sequence (P26715 94-233 limits assumed, chain 1 of 2): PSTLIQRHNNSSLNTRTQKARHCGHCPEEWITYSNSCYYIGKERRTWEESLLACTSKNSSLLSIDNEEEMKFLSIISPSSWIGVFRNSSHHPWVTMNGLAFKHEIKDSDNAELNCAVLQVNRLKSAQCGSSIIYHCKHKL
T3 sequence (Q13241 32-179 limits assumed, chain 2 of 2): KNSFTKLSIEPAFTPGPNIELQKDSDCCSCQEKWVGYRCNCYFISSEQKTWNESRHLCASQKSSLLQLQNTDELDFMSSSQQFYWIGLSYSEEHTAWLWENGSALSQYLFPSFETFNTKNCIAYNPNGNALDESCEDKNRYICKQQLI

Row | Binder | EC50 [1] [nM] | EC50 [2] [nM] | EC50 (NKG2A-CD94-ECD-hFc) [nM] | EC50 [3] [nM] | EC50 [4] [nM] | EC50 [5] [nM] | IC50 [6] [nM]
1 | B1 | 1.64 |  |  |  |  |  | 
2 | B2 |  | 31 | 2.1 | 3.7 | 1.33 | 3 | 18
3 | B3 |  |  |  |  |  |  | 60
